Assay results reported in article PMC4148193, “Chromatin Insulator Factors Involved in Long-Range DNA Interactions and Their Role in the Folding of the Drosophila Genome” (PLoS Genetics, 2014).

Key:
CP190-C = molecular target: T1, CP190-C (Drosophila, UniProt Q24478 599-1096); assay: FCS; 50 nM; FA/FCS: 30 mM Tris/HCl pH 7.5, 100 mM NaCl, 20 uM ZnSO4, 5 mM mercaptoethanol, 0.01 mg/ml BSA, 0.004% Tween20, 2.5 nM DNA; EMSA: 150 mM NaCl, 30 mM Tris/HCl pH; conditions: protein: recombinant; tags: N-term 6xHis; blunt
T1 sequence: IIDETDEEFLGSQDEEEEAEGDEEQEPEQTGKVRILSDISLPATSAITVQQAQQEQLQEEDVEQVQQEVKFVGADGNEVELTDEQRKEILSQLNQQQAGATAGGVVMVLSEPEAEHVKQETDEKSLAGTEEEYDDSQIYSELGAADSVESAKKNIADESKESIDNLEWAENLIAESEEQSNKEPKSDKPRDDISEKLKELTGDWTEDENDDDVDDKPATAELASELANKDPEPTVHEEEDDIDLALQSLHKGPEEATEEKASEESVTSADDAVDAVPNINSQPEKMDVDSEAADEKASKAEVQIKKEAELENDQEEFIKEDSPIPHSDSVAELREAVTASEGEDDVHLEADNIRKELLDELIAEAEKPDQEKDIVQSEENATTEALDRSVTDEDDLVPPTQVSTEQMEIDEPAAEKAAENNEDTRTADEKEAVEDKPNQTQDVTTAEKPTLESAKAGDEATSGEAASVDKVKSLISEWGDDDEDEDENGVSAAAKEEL

BEAF32 (BEAF32B) [1] = molecular target: T2, BEAF32 (BEAF32B) (Drosophila, UniProt Q94513 1-282); assay: competition; unlabeled DNAS vs 2.5 nM Cy3B-DNAS, 100 nM BEAF32; FA/FCS: 30 mM Tris/HCl pH 7.5, 100 mM NaCl, 20 uM ZnSO4, 5 mM mercaptoethanol, 0.01 mg/ml BSA, 0.004% Tween20, 2.5 nM DNA; EMSA: 150 mM NaCl, 30 mM Tris/HCl pH; conditions: protein: recombinant; tags: N-term MBP; C-term 6xHis; blunt
T2 sequence: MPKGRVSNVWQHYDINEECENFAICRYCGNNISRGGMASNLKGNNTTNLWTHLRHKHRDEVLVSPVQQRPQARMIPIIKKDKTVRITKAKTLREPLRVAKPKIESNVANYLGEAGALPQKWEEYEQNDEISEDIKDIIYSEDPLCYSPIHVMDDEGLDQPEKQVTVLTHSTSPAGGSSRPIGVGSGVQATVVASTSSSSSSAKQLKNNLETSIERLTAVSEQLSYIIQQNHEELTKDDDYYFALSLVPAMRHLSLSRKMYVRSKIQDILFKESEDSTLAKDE

BEAF32 (BEAF32B) [2] = molecular target: T2, BEAF32 (BEAF32B); assay: fluorescence anisotropy; Hill n=3±0.4; 20 uM ZnSO4; FA/FCS: 30 mM Tris/HCl pH 7.5, 100 mM NaCl, 20 uM ZnSO4, 5 mM mercaptoethanol, 0.01 mg/ml BSA, 0.004% Tween20, 2.5 nM DNA; EMSA: 150 mM NaCl, 30 mM Tris/HCl pH; conditions: protein: recombinant; tags: N-term MBP; C-term 6xHis; blunt
CP190-BTB/POZ = molecular target: T3, CP190-BTB/POZ (Drosophila, UniProt Q24478 1-134); assay: fluorescence anisotropy; FA/FCS: 30 mM Tris/HCl pH 7.5, 100 mM NaCl, 20 uM ZnSO4, 5 mM mercaptoethanol, 0.01 mg/ml BSA, 0.004% Tween20, 2.5 nM DNA; EMSA: 150 mM NaCl, 30 mM Tris/HCl pH; conditions: protein: recombinant; tags: His; chain copies: 2; blunt
T3 sequence: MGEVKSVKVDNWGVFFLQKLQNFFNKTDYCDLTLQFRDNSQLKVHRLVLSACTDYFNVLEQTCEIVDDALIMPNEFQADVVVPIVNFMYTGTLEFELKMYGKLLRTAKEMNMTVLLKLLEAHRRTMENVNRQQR

CP190 = molecular target: T4, CP190 (Drosophila, UniProt Q24478 1-1096); assay: competition; unlabeled DNAS vs 2.5 nM Cy3B-DNAS, 200 nM CP190; FA/FCS: 30 mM Tris/HCl pH 7.5, 100 mM NaCl, 20 uM ZnSO4, 5 mM mercaptoethanol, 0.01 mg/ml BSA, 0.004% Tween20, 2.5 nM DNA; EMSA: 150 mM NaCl, 30 mM Tris/HCl pH; conditions: protein: recombinant; tags: N-term 6xHis; blunt
T4 sequence: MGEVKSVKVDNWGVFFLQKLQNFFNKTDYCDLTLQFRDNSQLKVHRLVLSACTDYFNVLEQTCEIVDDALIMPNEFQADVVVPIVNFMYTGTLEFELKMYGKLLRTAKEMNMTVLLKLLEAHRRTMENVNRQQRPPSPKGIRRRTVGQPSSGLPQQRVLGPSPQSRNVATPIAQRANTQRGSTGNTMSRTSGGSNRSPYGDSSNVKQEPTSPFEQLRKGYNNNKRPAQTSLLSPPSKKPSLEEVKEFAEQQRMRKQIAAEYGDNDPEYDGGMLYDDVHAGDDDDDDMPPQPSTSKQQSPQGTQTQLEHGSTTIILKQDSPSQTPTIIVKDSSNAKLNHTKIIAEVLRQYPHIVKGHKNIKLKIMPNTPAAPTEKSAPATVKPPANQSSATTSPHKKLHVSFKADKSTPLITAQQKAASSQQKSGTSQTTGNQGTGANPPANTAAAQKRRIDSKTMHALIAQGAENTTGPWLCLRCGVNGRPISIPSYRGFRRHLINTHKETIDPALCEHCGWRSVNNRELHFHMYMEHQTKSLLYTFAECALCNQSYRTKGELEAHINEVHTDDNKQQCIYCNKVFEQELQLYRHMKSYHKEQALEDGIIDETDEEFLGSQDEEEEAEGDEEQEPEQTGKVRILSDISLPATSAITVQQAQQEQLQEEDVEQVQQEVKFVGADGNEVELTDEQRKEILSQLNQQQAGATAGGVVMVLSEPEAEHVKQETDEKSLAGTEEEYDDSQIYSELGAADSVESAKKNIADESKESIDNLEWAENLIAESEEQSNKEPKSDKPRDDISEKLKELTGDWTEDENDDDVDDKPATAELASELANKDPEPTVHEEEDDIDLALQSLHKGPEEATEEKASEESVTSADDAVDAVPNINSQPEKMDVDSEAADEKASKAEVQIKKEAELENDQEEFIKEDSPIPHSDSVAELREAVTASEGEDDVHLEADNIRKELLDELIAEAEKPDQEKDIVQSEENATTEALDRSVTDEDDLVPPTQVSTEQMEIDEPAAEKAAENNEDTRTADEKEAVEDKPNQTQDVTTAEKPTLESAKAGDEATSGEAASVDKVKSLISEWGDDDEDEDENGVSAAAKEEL

B1: DNAS (dsDNA)
DNA 1: AGAAGTCAGCGCGATAGCATCGATATTTTCGTGACACGCTTGTCATCCGATAGGTAGT
DNA 2: ACTACCTATCGGATGACAAGCGTGTCACGAAAATATCGATGCTATCGCGCTGACTTCT
Q: Does B1 bind (CP190-C)?
A: no binding

Q: And the Ki (BEAF32 (BEAF32B) [1])?
A: 20 ± 4 nM

Q: What about the Kd (BEAF32 (BEAF32B) [2]) of the same binder?
A: 68 ± 5 nM

Q: Does B1 bind (CP190-BTB/POZ)?
A: no binding

Q: And the Ki (CP190)?
A: 17 ± 4 nM
